US20250320312A1 (OXITOPE PHARMA B V, published 2025)
Changes are numbered by the printed parent chain.

T1: Peptide 4: Biotin-AGGGGSGGGGSGGGGSAAA-Tyr-acid (N-terminal biotin; C-terminal acid)
T1 construct: Control peptide without PC
T1 peptide: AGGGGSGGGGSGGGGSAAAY

T2: Peptide 8: Biotin-AEAAAKEAAAKEAAAKEAAAKAAA-Tyr-acid (N-terminal biotin; C-terminal acid)
T2 construct: Control peptide without PC
T2 peptide: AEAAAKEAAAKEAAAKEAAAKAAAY

T3: Peptide 4: Biotin-AGGGGSGGGGSGGGGSAAA-Tyr-acid (N-terminal biotin; C-terminal acid; no PC)
T3 construct: control peptide without PC
T3 peptide: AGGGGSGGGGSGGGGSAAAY

T4: Peptide 8: Biotin-AEAAAKEAAAKEAAAKEAAAKAAA-Tyr-acid (N-terminal biotin; C-terminal acid; no PC)
T4 construct: control peptide without PC
T4 peptide: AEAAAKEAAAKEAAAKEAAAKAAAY

B1: PcOxP_DB04_C11 (scFv, V domains shown)
VH: EVQLLESGGGLVQPGGSLRLSCAASGFTFSDYYMEWVRQAPGKGLEWVAASRNKANDYTTEYADSVKGRFTISRDNSKNTLYLQMNSLRAEDTAVYYCARDYYGSSYWYFDVWGQGTLVTVSS
VL: DIVMTQSPDSLAVSLGERATINCTASESLYSSKHKVHYLAWYQQKPGQPPKLLIYGASHRQIGVPDRFSGSGSGTDFTLTISSLQAEDVAVYYCAQFYSYPLTFGGGTKVEIK
notes: scFv in periplasmic extract
B2: PcOxP_DB04_B06 (scFv, V domains shown)
VH: B1 VH with Y32A
VL: DIQMTQSPSSLSASVGDRVTITCTASESLYSSKHKVHYLAWYQQKPGKAPKLLIYGASNRYIGVPSRFSGSGSGTDFTLTISSLQPEDFATYYCAQFYDYPLTFGGGTKVEIK
notes: scFv in periplasmic extract
B3: PcOxP_DB04_E05 (scFv, V domains shown)
VH: B1 VH with F27N, Y32F, D57Y
VL: B1 VL with H59N, Q61Y
notes: scFv in periplasmic extract
B4: PcOxP_DB04_A09 (scFv, V domains shown)
VH: B1 VH with A55W
VL: B2 VL with S26E, R60L, I62S, D99S
notes: scFv in periplasmic extract
B5: PcOxP_DB04_A10 (scFv, V domains shown)
VH: B1 VH with F27D, Y32F, A55W
VL: B2 VL with Y61Q, D99S
notes: scFv in periplasmic extract
B6: PcOxP_DB04_B08 (scFv, V domains shown)
VH: B1 VH with Y32D
VL: B2 VL with A57L, Y98F, D99S
notes: scFv in periplasmic extract
B7: PcOxP_DB04_A07 (scFv, V domains shown)
VH: B1 VH with F29Q, Y32F
VL: B2 VL with A57I, D99S
notes: scFv in periplasmic extract
B8: PcOxP_DB04_E12 (scFv, V domains shown)
VH: B1 VH with Y32F
VL: B1 VL with H59N, Q61V, S99I
notes: scFv in periplasmic extract
B9: PcOxP_DB04_F03 (scFv, V domains shown)
VH: B1 VH with F29A, Y32F, N53W, Y102I
VL: B1 VL with H59N, Q61Y
notes: scFv in periplasmic extract
B10: PcOxP_DB04_C03 (scFv, V domains shown)
VH: B1 VH with F29T, Y32F, D57S
VL: B2 VL with N59S, R60L, I62S, D99E
notes: scFv in periplasmic extract
B11: PcOxP_DB04_E08 (scFv, V domains shown)
VH: B1 VH with F29S, Y32F, M34L, A55W
VL: B1 VL with A57V, H59N, Q61Y
notes: scFv in periplasmic extract
B12: PcOxP_DB04_D07 (scFv, V domains shown)
VH: B1 VH with N53W
VL: B1 VL with H59N, Q61Y, S99T
notes: scFv in periplasmic extract
B13: PcOxP_DB04_E06 (scFv, V domains shown)
VH: B1 VH with F29G, Y32F, S106P
VL: B1 VL with H59N, Q61Y
notes: scFv in periplasmic extract
B14: PcOxP_DB04_G03 (scFv, V domains shown)
VH: B1 VH with F29T, Y32F, V112Y
VL: B1 VL with H59N, Q61N, Q96H
notes: scFv in periplasmic extract

Columns and labels:
Test in all cases: scFv ELISA
[1] = target: T1, Peptide 4: …
Summary of the method: (§1)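 Bound scFv was read as OD450 after HRP–anti-V5 detection, TMB development and HCl stop. PPE with BSA was incubated 1 h at RT on BSA-blocked wells coated overnight at 4° C. with peptide, or on streptavidin wells loaded 1 h with biotinylated PC-peptides at 1 μg/mL.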

[2] = target: T2, Peptide 8: …
Summary of the method: as §1

[3] = target: Peptide 1: Biotin-…-[Tyr(PC)]-acid
BSA = BSA (UniProt P02769)
[4] = target: Peptide 5: Biotin-…-[Tyr(PC)]-acid
[5] = target: T3, Peptide 4: …
Summary of the method: as §1

[6] = target: T4, Peptide 8: …
Summary of the method: as §1

BSA, sequence (P02769 25-607 limits assumed): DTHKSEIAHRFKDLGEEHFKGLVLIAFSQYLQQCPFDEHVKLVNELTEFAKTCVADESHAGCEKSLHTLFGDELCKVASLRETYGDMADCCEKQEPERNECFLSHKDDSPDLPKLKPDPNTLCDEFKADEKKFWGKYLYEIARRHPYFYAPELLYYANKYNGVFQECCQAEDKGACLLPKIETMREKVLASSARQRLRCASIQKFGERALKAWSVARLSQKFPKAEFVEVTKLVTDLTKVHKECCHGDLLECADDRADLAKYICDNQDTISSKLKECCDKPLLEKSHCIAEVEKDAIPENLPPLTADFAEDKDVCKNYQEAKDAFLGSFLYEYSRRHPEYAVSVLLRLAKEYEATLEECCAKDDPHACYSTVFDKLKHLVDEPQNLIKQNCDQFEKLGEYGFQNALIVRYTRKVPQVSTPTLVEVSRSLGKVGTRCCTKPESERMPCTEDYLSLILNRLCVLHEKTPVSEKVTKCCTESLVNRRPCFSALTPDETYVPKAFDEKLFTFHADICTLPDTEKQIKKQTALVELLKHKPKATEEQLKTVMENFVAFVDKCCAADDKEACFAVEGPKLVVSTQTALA

| OD450 [1] | OD450 [2] | OD450 [3] | OD450 (BSA) | OD450 [4] | OD450 [5] | OD450 [6] | Binder |
| --- | --- | --- | --- | --- | --- | --- | --- |
| 0.05 OD450 | 0.04 OD450 | 0.81 OD450 | 0.07 OD450 | 1.34 OD450 |  |  | B1 |
|  |  | 0.66 OD450 | 0.1 OD450 | 1.06 OD450 | 0.06 OD450 | 0.06 OD450 | B2 |
| 0.06 OD450 | 0.05 OD450 | 0.67 OD450 | 0.09 OD450 | 1.03 OD450 |  |  | B3 |
|  |  | 1.16 OD450 | 0.12 OD450 | 1.96 OD450 | 0.06 OD450 | 0.06 OD450 | B4 |
|  |  | 0.74 OD450 | 0.11 OD450 | 1.61 OD450 | 0.06 OD450 | 0.06 OD450 | B5 |
|  |  | 1.33 OD450 | 0.11 OD450 | 1.56 OD450 | 0.06 OD450 | 0.05 OD450 | B6 |
|  |  | 1.54 OD450 | 0.09 OD450 | 2.11 OD450 | 0.05 OD450 | 0.05 OD450 | B7 |
| 0.05 OD450 | 0.05 OD450 | 1.03 OD450 | 0.07 OD450 | 1.39 OD450 |  |  | B8 |
| 0.06 OD450 | 0.05 OD450 | 0.58 OD450 | 0.1 OD450 | 0.87 OD450 |  |  | B9 |
|  |  | 1.34 OD450 | 0.1 OD450 | 1.87 OD450 | 0.06 OD450 | 0.06 OD450 | B10 |
| 0.06 OD450 | 0.05 OD450 | 1.39 OD450 | 0.09 OD450 | 2.01 OD450 |  |  | B11 |
| 0.05 OD450 | 0.05 OD450 | 1.02 OD450 | 0.08 OD450 | 1.05 OD450 |  |  | B12 |
| 0.04 OD450 | 0.05 OD450 | 1.04 OD450 | 0.07 OD450 | 1.59 OD450 |  |  | B13 |
| 0.04 OD450 | 0.05 OD450 | 0.19 OD450 | 0.07 OD450 | 0.4 OD450 |  |  | B14 |
